Source: the supplement of paper PMC9170038

System: MS2 coat protein
Test: apparent KD of MS2 coat protein; designed switch direction (-1 OFF switch, 1 ON switch): -1; higher = weaker reporter binding
Outline: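 On Illumina chips, designed RNA switches with common flanks were made by stalled E. coli RNA polymerase. Titrations with SNAP-549-labelled MS2 coat protein, doubling from 0.7 or 1.5 nM to 3 µM, were done with no input, with 200 uM small-molecule ligand, or with an oligonucleotide input. Apparent KD is the median per design over clusters, from curve fits of normalised cluster fluorescence.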

[1] = input ligand: microRNA oligo, concentration not stated
[2] = Eterna round: R95, input ligand: microRNA oligo, concentration not stated
[3] = Eterna round: R95, input ligand: FMN 200 uM
[4] = Eterna round: R95, input ligand: none

Row | Sequence | apparent KD of MS2 coat protein (input ligand: FMN 200 uM) | apparent KD of MS2 coat protein [1] | apparent KD of MS2 coat protein (input ligand: none) | apparent KD of MS2 coat protein [2] | apparent KD of MS2 coat protein [3] | apparent KD of MS2 coat protein [4]
1 | GCAGUGACAUGAGGAUCACCCAUGUGGAACUCGUGAAUAAGCGAGGAUAUCUCAAGAUAUCAAAGAGAGAAGGCGUACACUGCA [Diorso] (Eterna round: R96, puzzle: Exclusion NG 3) | 0.731 µM | 0.159 µM | 0.229 µM | – | – | –
2 | UAACAUGUCUGAGGAUAUCUGCACGUUUAGUGCAGAGAAGGCAGAACAUGAGGAUCACCCAUGUAGAUCAUUAAUUAAUUAAUU [ENG1/7-B2] (Eterna round: R96, puzzle: Exclusion NG 1) | 0.195 µM | 0.142 µM | 0.194 µM | – | – | –
3 | UCGGAUAGAGGAUAUACAUGAGGAUCACCCAUGUGGUCAAGCGGGUACGCCCAGCGAGGUAGAAGGCUAUCCGG [Eternabot (L1) Solution 16] (Eterna round: R97, puzzle: Exclusion 3) | 0.407 µM | – | 0.136 µM | – | – | –
4 | UAUUCGCAAGCAAAUGGGUACAUGAGGAUCACCCAUGUGCUCGUCUUAUAAGGUACUGUGACGAAAGUCACGGUACC [mod--Eli9] (Eterna round: R97, puzzle: Sensor, turn-off variant 1) | 0.0209 µM | – | 0.0203 µM | – | – | –
5 | GCACAGGCAGGAUAUACAUGAGGAUCACCCAUGUGACCCUUGAUGUACUCGCGUACACGUAGAAGGGCCUGUGC [Omei Ex3 Model Bachelor's Dilema v41] (Eterna round: R97, puzzle: Exclusion 3) | 0.633 µM | – | 0.407 µM | – | – | –
6 | GAUCCGUUAGGAUAUACAGGAUUCACGCCUGAGUGAAUGUAGUAGAAGGAACAUGAGGAUCACCCAUGUGGUAU [Eternabot (L1) Solution 85] (Eterna round: R97, puzzle: Exclusion 4) | 0.0832 µM | – | 0.0405 µM | – | – | –
7 | GCUGGUCGAGGAUAUGCAAUCGUGCUUCGGCACGUAAGGUCACAUGAGGAUCACCCAUGUAGAAGGCGACCAGC [E2/4-A1] (Eterna round: R97, puzzle: Exclusion 2) | 0.0325 µM | – | 0.0192 µM | – | – | –
8 | CCAUCGUGUGUGAGGAUAUGCUGGUCCUUGGAUCAGCAGAAGGCACAUGAGGAUCACCCAUGUGAAUACGGUGG [JL bmx4 3.21] (puzzle: Brourd's mod of Exclusion 4) | – | – | – | 0.0178 µM | – | –
9 | GCAACGAGAGGAUAUGCUUAACGACCGGCGGAAGCGGAUCCACAUGAGGAUCACCCAUGUAGAAGGCUCGGACC [Eternabot (Original) Solution 24] (Eterna round: R97, puzzle: Exclusion 2) | 0.0358 µM | – | 0.0274 µM | – | – | –
10 | UUUAAUUUUUUUUUUUUACAAGCUUUUUGCUCGUCUUAUACAUGAGGAUCACCCAUGUAAGUGAGGGAUAAAUUAUC [JMF 40] (puzzle: Sensor v3, turn-off variant 2) | – | – | – | 0.0228 µM | 0.0156 µM | 0.0156 µM
11 | AGUAUGCGGCAGGAUAUCCAUCCGCGGUAAGGUGGAGAAGGGCUGACAUGAGGAUCACCCAUGUGCGUCCUGUA [salish99_ex6_r4_028] (Eterna round: R97, puzzle: Exclusion 6) | 0.0319 µM | – | 0.0199 µM | – | – | –
12 | GGAAAACAUGAGGAUCACCCAUGUAAGGAUAUGCAAAAGGAUAUAGAAGGAAUAAAAAGCAGAAGGUACAAAGG [salish99-ex1_r3_096] (puzzle: Exclusion 1) | – | – | – | 0.0457 µM | 0.116 µM | 0.0666 µM
13 | UCGGUGCGAGGAUAUACGUUUGCGCGUUUUCGUUUGCGCGUACAUGAGGAUCACCCAUGUAGAAGGCGCGCGGC [Apr-15 SS2-12] (puzzle: Exclusion 2) | – | – | – | 0.0118 µM | – | –
14 | AGUACUAACACGAAAGUGUUAGUACAAUAAGCUAGUGGAACAUGAGGAUCACCCAUGUCCUCAUUAGCUCGUCUUGG [Mat - Sensor v3 - Turn-off var 2 - D40] (puzzle: Sensor v3, turn-off variant 2) | – | – | – | 0.0196 µM | 0.0164 µM | 0.0146 µM
15 | GGUGCGUAUGUGAGGAUAUGCUGGUCCUUGGAUCAGCAGAAGGCACAUGAGGAUCACCCAUGUGGUGUCGUACG [salish99_Bmod_Ex4_012] (puzzle: Brourd's mod of Exclusion 4) | – | – | – | 0.0546 µM | – | –
16 | UCGAGUGGUUAGGAUAUCAUUGGUGCAUAUCAUUGAGAAGGAACUACAUGAGGAUCACCCAUGUGGCAGUGAUA [Abezaso] (puzzle: Exclusion 6) | – | – | – | 0.0239 µM | – | –
17 | GGAUGUUCAGAGGAUAUCGAUCCCGAGACCGGGCGAGAAGGUUGAACAUGAGGAUCACCCAUGUGAGGCCUAAC [Cebezais] (Eterna round: R97, puzzle: Exclusion 6) | 0.0385 µM | – | 0.0127 µM | – | – | –

Row | Sequence | apparent KD of MS2 coat protein (input ligand: FMN 200 uM) | apparent KD of MS2 coat protein [1] | apparent KD of MS2 coat protein (input ligand: none) | apparent KD of MS2 coat protein [2] | apparent KD of MS2 coat protein [3] | apparent KD of MS2 coat protein [4]
18 | UGGUCACAUGAGGAUCACCCAUGUCAGGAUAUCUACAUUGAAGCUUCGGCUUCAAUGUAGAGAAGGGAUAUAAU [E1/9-B1] (Eterna round: R97, puzzle: Exclusion 1) | 0.167 µM | – | 0.0714 µM | – | – | –
19 | AAUAUAAGCAAGAUCCUAAACAUGAGGAUCACCCAUGUGCUCGUCUUAUAAAGUACUAUCACGAAAGUGAUAGUACA [Sensor 3, v1 - 65] (puzzle: Sensor v3, turn-off variant 1) | – | – | – | 0.398 µM | 0.111 µM | 0.127 µM
20 | GUCAGCUCGUCAGGAUAUAUUAACAUGAGGAUCACCCAUGUAAGAUCAGGCUUCGGCCAAUGUUAAUAGAAGGGACGAGCUGAC [ENG2/12-B1] (Eterna round: R96, puzzle: Exclusion NG 2) | 0.132 µM | 0.745 µM | 0.438 µM | – | – | –
21 | ACUCCCAUCGUGAGGAUAUUGAAGCGGGAAGCCGGCAAGAAGGUACAUGAGGAUCACCCAUGUGUGAACAGGAC [Eternabot (L1) Solution 48] (Eterna round: R97, puzzle: Brourd's mod of Exclusion 4) | 0.0145 µM | – | 0.0149 µM | – | – | –
22 | CCCUUGUGAGGAUAUUCUUAAAAUGCUAACCACAAUUUUAUGAAGAAGGCACAUGAGGAUCACCCAUGUUUCUC [mod1] (Eterna round: R97, puzzle: Exclusion 4) | 0.0805 µM | – | 0.0964 µM | – | – | –
23 | GAACAAGCGUGAGGCUCGUCUUAAAGAGCCUCAUGAAAAACAUGAGGAUCACCCAUGUAAAAUGAUCGAAAGAUCAA [Mat - Sensor v2 - var 2 - Mod - D131] (Eterna round: R96, puzzle: Sensor v2, turn-off variant 2) | 0.0149 µM | 0.0127 µM | 0.0169 µM | – | – | –
24 | CGUGACUCAGGAUAUCUAUAAUAUCACAUGAGGAUCACCCAUGUCCAGCGAAAGCUGGAGGGAGAAGGGAGUCACG [Fiskers Ex 5 - 35] (puzzle: Exclusion 5) | – | – | – | 0.164 µM | 0.0328 µM | 0.146 µM
25 | AAGACAAAUGUAGGAUAUGCGUGGCGAAGCUAUGCAGAAGGACAUGAGGAUCACCCAUGUCUAAGCGUCUGCGUACAGAUGCUA [JL eng1 1.35 mod 8] (Eterna round: R96, puzzle: Exclusion NG 1) | 0.0199 µM | 0.0107 µM | 0.0184 µM | – | – | –
26 | ACAUUACAUGAGGAUCACCCAUGUGAGGAUAUGGAGCGAGAGUGUCCUGUCGCGUACACCAGAAGGCGCGGGUG [1st #50] (Eterna round: R97, puzzle: Exclusion 1) | 0.235 µM | – | 0.0801 µM | – | – | –
27 | GAGUGACAUGAGGAUCACCCAUGUAAGGAUAUACGGUUGGUAGAGAGAGGGAAAAGAGGUAGAAGGUACGAAGG [JR_Exclu1_Sub056] (puzzle: Exclusion 1) | – | – | – | 0.056 µM | 0.0439 µM | 0.0762 µM
28 | UUAAUUAGCUCGCUAGAUCCUCACAUGAGGAUCACCCAUGUGCAGGAUAUCAGCUCGAUUAGAGCUGAGAAGGGCACUGCGAGC [ExNG3/10-A1] (Eterna round: R96, puzzle: Exclusion NG 3) | 0.16 µM | 0.0895 µM | 0.104 µM | – | – | –
29 | UUAAUUCUGAUUCUUGAAAUACAUGAGGAUCACCCAUGUUCACAGGAUAUUGAUUAUGUUAGUAACAAGAAGGGUGUAACAUAU [JR_ExcNG3_Sub037] (Eterna round: R96, puzzle: Exclusion NG 3) | – | 0.0264 µM | – | – | – | –
30 | AUUUUGUGAGGAUAUUAGUAGUAAAUGAAUAAAAUUAUUACUGAGAAGGCACAUGAGGAUCACCCAUGUUCCUA [Mat - Exclusion 4 - Eli Mod - D7] (Eterna round: R97, puzzle: Exclusion 4) | 0.175 µM | – | 0.0192 µM | – | – | –
31 | AAGAAACAUGAGGAUCACCCAUGUGAGGAUAUGUAAAAUAAAAGAAAAUAAAGAAGAAACAGAAGGCACAAAGG [Mat - Mod of Hog D22] (puzzle: Exclusion 1) | – | – | – | 0.0361 µM | 0.0403 µM | 0.0337 µM
32 | AUCGUGUUAGGAUAUACACGACGCUGGGUAGCGGGCGGAGGGUAGAAGGGACAUGAGGAUCACCCAUGUUCGGG [Somalaesar] (Eterna round: R97, puzzle: Exclusion 4) | 0.0412 µM | – | 0.0466 µM | – | – | –
33 | GGUUUGGGAGGAUAUGGUUUUAAUAACAUGAGGAUCACCCAUGUAAAUAGAUCCUCAAGGCCAGAAGGCUCGGGCC [-24.9, -24.02 kcal, A 29%] (Eterna round: R97, puzzle: Exclusion 5) | 0.508 µM | – | 0.143 µM | – | – | –
34 | CAUCUGUGAGGAUAUGGUGAGUAGUGCCUGAGCGCUGCUCACCAGAAGGCACAUGAGGAUCACCCAUGUAUGAA [Mat - Exclusion 4 - Mod of JL - D1] (puzzle: Exclusion 4) | – | – | – | 0.0469 µM | – | –
